Values belong to the binder of their own block, whether it stands above or below them.
What was measured:
[1] = target: T1, Thrombomodulin (TM) expressed on COS cells (human, UniProt P07204 19-575); assay: cell-surface binding assay (alkaline phosphatase-conjugated anti-human Fc, OD405); COS cells transfected with TM in 48-well plates, varying concentrations of FD-Fc in PBS/10% calf serum, 30 minutes at room temperature; specific binding = TM-transfected minus empty vector; apparent affinities; conditions: one partner purified
T1 construct: Thrombomodulin; cDNA isolated from expression libraries of HUVECs and EA.hy926 cells; Also used as the target of the functional rows on HUVECs (endogenous TM there); source: COS cells, transfected, on cells
T1 sequence (P07204 19-575): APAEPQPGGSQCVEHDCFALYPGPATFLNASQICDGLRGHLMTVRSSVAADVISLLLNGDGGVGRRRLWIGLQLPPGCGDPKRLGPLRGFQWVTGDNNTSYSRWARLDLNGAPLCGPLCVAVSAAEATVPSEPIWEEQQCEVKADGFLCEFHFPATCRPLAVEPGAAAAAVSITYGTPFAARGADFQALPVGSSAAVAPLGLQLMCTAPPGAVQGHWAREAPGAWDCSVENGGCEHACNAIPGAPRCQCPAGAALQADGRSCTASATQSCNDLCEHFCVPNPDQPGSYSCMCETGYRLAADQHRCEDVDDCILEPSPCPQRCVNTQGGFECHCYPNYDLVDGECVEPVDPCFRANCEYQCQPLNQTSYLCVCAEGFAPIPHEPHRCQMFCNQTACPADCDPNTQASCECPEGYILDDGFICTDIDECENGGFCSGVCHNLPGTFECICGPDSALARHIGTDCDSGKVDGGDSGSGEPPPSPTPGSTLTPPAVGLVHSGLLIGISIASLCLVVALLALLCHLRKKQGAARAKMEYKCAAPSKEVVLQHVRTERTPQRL

[2] = target: T2, soluble extracellular domain of human TM (human, UniProt P07204 19-515); assay: pull-down; 100 nM His-tagged TM extracellular domain with 5 nM thrombin and 0.25, 0.5 or 1.0 uM native Ang1, Ang2 or Ang4 (control), 60 minutes on ice, 0.15 M NaCl, 20 mM Tris pH 7.5, 0.1% Triton X-100, 2 mM CaCl2, 1 mg/ml BSA; TM collected on Ni-NTA beads, western blot; conditions: both partners purified
T2 construct: Thrombomodulin, human, soluble extracellular domain; also called soluble TM; source: bought: R&D Systems
T2 sequence (P07204 19-515): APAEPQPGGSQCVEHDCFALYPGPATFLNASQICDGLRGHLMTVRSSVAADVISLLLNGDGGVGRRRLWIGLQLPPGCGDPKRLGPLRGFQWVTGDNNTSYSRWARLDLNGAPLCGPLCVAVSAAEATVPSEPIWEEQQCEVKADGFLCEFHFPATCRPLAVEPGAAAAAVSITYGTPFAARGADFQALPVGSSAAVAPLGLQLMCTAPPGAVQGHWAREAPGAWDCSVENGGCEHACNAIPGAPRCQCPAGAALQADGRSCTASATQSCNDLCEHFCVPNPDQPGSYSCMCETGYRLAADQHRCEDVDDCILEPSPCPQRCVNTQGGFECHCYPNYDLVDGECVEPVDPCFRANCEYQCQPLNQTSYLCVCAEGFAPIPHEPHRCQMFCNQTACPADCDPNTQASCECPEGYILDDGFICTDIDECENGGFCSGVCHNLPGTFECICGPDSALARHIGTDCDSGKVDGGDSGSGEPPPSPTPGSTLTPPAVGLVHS

Kd [1]: ~8.3 nM
B1: Ang2-FD-Fc (Fc fusion, human, UniProt O15123-3 19-495, looked up)
chain: KEEQISFRDCAEVFKSGHTTNGIYTLTFPNSTEEIKAYCDMEAGGGGWTIIQRREDGSVDFQRTWKEYKVGFGNPSGEYWLGNEFVSQLTNQQRYVLKIHLKDWEGNEAYSLYEHFYLSSEELNYRIHLKGLTGTAGKISSISQPGNDFSTKDGDNDKCICKCSQMLTGGWWFDACGPSNLNGMYYPQRQNTNKFNGIKWYYWKGSGYSLKATTMMIRPADF
notes: Angiopoietin-2 (Ang2, ANGPT2), fibrinogen-like domain (FD); Detected with anti-human Fc

Kd [1]: ~88 nM
B2: Ang1-FD-Fc (Fc fusion, human, UniProt Q15389 277-498, looked up)
chain: REEEKPFRDCADVYQAGFNKSGIYTIYINNMPEPKKVFCNMDVNGGGWTVIQHREDGSLDFQRGWKEYKMGFGNPSGEYWLGNEFIFAITSQRQYMLRIELMDWEGNRAYSQYDRFHIGNEKQNYRLYLKGHTGTAGKQSSLILHGADFSTKDADNDNCMCKCALMLTGGWWFDACGPSNLNGMFYTAGQNHGKLNGIKWHYFKGPSYSLRSTTMMIRPLDF
notes: Used at 1 ug/ml in the screen; also called fibrinogen-like domain (FD) of Ang1 fused to a human Fc tag

B3: native human Ang2 (ligand, UniProt O15123-3 19-495, looked up)
chain: YNNFRKSMDSIGKKQYQVQHGSCSYTFLLPEMDNCRSSSSPYVSNAVQRDAPLEYDDSVQRLQVLENIMENNTQWLMKLENYIQDNMKKEMVEIQQNAVQNQTAVMIEIGTNLLNQTAEQTRKLTDVEAQVLNQTTRLELQLLEHSLSTNKLEKQILDQTSEINKLQDKNSFLEKKVLAMEDKHIIQLQSIKEEKDQLQVLVSKQNSIIEELEKKIVTATVNNSVLQKQQHDLMETVNNLLTMMSTSNSKDPTVAKEEQISFRDCAEVFKSGHTTNGIYTLTFPNSTEEIKAYCDMEAGGGGWTIIQRREDGSVDFQRTWKEYKVGFGNPSGEYWLGNEFVSQLTNQQRYVLKIHLKDWEGNEAYSLYEHFYLSSEELNYRIHLKGLTGTAGKISSISQPGNDFSTKDGDNDKCICKCSQMLTGGWWFDACGPSNLNGMYYPQRQNTNKFNGIKWYYWKGSGYSLKATTMMIRPADF
notes: Angiopoietin-2, human, 'native' as against the chimeric FD forms; also called Angiopoietin-2; source: bought: R&D Systems
percent inhibition of thrombin/TM complex formation at 1 uM Ang2 [2]: ~80%

binding result [2]: binds
B4: native human Ang1 (ligand, UniProt Q15389 16-498, looked up)
chain: HIGCSNQRRSPENSGRRYNRIQHGQCAYTFILPEHDGNCRESTTDQYNTNALQRDAPHVEPDFSSQKLQHLEHVMENYTQWLQKLENYIVENMKSEMAQIQQNAVQNHTATMLEIGTSLLSQTAEQTRKLTDVETQVLNQTSRLEIQLLENSLSTYKLEKQLLQQTNEILKIHEKNSLLEHKILEMEGKHKEELDTLKEEKENLQGLVTRQTYIIQELEKQLNRATTNNSVLQKQQLELMDTVHNLVNLCTKEGVLLKGGKREEEKPFRDCADVYQAGFNKSGIYTIYINNMPEPKKVFCNMDVNGGGWTVIQHREDGSLDFQRGWKEYKMGFGNPSGEYWLGNEFIFAITSQRQYMLRIELMDWEGNRAYSQYDRFHIGNEKQNYRLYLKGHTGTAGKQSSLILHGADFSTKDADNDNCMCKCALMLTGGWWFDACGPSNLNGMFYTAGQNHGKLNGIKWHYFKGPSYSLRSTTMMIRPLDF
notes: Angiopoietin-1, human, 'native' as against the chimeric FD forms; also called Angiopoietin-1; source: bought: R&D Systems
